In patent US20240368675:

Tested on: T1, Gs12-10 (uncultured bacterium (metagenome)?)
T1 sequence: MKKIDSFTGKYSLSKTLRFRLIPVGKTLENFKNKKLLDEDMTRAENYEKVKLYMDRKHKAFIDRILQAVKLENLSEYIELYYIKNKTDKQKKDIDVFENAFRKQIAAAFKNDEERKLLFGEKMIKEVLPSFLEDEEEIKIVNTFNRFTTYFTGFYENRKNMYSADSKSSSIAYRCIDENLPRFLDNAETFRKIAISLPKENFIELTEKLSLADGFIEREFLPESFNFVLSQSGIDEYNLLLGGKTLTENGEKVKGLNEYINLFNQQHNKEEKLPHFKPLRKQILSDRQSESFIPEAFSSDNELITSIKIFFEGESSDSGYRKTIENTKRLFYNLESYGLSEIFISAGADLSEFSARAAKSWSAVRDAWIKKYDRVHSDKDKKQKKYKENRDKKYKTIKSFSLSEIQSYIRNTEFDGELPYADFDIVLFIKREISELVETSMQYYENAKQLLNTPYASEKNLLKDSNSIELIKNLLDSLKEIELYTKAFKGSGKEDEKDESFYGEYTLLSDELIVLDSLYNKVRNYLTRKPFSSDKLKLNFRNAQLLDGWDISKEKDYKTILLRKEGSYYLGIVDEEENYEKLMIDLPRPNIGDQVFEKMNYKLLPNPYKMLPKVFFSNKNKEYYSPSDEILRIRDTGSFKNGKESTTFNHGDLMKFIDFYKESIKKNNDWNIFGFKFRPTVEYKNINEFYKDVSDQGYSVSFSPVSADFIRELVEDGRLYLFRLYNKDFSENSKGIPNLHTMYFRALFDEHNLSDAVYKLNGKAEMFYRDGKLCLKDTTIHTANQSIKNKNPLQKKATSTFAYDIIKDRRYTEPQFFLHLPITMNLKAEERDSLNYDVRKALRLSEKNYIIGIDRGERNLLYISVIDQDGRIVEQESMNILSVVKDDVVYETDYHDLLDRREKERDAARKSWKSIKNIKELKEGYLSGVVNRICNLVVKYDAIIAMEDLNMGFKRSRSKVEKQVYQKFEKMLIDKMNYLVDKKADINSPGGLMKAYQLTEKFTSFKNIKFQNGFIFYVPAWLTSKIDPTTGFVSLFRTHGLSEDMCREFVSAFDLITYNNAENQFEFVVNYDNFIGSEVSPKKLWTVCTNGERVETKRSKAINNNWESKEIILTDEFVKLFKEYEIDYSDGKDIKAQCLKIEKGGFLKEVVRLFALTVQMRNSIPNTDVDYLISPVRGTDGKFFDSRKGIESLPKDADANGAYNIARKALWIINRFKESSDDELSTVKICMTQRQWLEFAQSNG
Assay: cleavage_in_vitro
Conditions: PAM ATTT; CutSmart buffer, 37 C, 2 h

Q: “crRNA-ATTT pUC19 ; pUC19 circular plasmid” was tested. Which activity did it give?
A: The activity was 100 % linearised.
